Patent US20230235080A1, “TROPHOBLAST CELL-SURFACE ANTIGEN-2 (TROP-2) ANTIBODIES” (Bionecure Therapeutics, Inc., priority 2020, published 2023)

T1: human Trop-2-ECD-6His fusion protein (Homo sapiens, UniProt P09758)
T1 construct: made in house; host or cells: human 293 cell line
T1 sequence (P09758 with tags, fused parts or gaps): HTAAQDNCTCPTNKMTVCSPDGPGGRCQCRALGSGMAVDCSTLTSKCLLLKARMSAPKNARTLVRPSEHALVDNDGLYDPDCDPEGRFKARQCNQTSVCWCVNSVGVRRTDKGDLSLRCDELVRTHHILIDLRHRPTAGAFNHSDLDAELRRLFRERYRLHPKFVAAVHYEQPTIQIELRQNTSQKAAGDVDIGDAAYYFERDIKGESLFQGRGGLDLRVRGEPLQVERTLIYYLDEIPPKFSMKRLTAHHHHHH

T2: human Trop-2ECD-6His (Homo sapiens, UniProt P09758)
T2 construct: made in house; host or cells: human 293 cell line
T2 sequence (P09758 with tags, fused parts or gaps): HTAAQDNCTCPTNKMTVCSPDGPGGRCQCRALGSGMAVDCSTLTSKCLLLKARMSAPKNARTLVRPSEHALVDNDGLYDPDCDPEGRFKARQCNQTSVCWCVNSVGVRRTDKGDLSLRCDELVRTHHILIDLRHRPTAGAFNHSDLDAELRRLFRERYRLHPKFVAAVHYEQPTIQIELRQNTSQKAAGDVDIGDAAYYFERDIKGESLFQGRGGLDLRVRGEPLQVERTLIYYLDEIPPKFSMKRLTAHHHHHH

T3: mouse Trop-2-His (Mus musculus, UniProt Q8BGV3)
T3 sequence (Q8BGV3 25-317): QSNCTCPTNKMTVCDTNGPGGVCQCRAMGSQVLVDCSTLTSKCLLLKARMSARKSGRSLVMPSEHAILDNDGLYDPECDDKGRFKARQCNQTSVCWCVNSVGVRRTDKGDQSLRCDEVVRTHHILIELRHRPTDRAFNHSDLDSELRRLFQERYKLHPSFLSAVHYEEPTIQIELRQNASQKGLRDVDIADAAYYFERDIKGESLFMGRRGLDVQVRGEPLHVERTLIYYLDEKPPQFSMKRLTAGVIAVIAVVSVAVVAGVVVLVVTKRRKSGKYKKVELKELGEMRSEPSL

T4: human EPCAM-His (Homo sapiens, UniProt P16422)
T4 sequence (P16422 24-314): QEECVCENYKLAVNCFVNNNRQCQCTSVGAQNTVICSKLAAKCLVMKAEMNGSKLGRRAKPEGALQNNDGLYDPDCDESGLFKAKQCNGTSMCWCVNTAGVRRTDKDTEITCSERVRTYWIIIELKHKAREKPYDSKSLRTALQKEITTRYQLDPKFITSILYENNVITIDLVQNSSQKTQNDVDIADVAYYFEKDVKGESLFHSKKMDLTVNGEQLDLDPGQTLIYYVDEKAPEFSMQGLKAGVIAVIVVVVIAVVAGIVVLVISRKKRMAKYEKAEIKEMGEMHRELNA

T5: human Trop-2-ECD-6His fusion protein (human, UniProt P09758 27-274)
T5 construct: Expressed in a human 293 cell line; also called huTrop-2; human Trop-2 antigen
T5 sequence: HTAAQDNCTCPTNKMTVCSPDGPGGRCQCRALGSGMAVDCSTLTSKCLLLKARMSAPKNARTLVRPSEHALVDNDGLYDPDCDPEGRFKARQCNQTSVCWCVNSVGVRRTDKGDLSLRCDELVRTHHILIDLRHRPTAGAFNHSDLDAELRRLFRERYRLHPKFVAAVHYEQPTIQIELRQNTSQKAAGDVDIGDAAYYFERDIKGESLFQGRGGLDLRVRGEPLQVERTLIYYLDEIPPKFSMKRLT


Legend:
[1] = target: T1, human Trop-2-ECD-6His fusion protein; experiment: Antigen binding assay (ELISA) on immobilized Trop-2-ECD-6His; settings: for OD value, Conditioned Medium 1 to 1 ratio / OD value, Conditioned Medium 1 to 10 ratio: Table 3, ELISA absorbance at 405 nm
Procedure: Using the HCVR sequence and LCVR sequence of mAbs #118-2-5 and #125-1-5, two murine-human chimeric IgG1 (hereinafter “chimeric IgG1”) was prepared which comprised the heavy chain sequences set forth in SEQ ID NOs: 47 and 49, and the light chain sequences set forth in SEQ ID NOs: 48 and 50. Nucleic acids encoded by SEQ ID NO: 19, 20 and SEQ ID NO: 21, 22 were amplified and inserted into pTT5 to make an expression plasmid of the full-length IgG. The heavy chain and light chain expression plasmids were used to co-transfect 100 mL HEK293-6E cells. The recombinant IgG secreted into to media was purified using protein A affinity. The purified IgG migrated as ~150 kDa band in SDS-PAGE under non-reducing conditions, ~55 kDa and ~30 kDA bands under reducing condition. The purity of the chimeric IgG is >90%. The binding affinity between the chimeric IgGs and a human Trop-2-ECD-6His fusion protein (SEQ ID NO:2) was determined by ELISA. The Trop-2-ECD-6His fusion protein was immobilized on the surface of a microplate wells and incubated with the chimeric IgGs. A secondary enzyme-labeled goat-anti-mouse IgG-AP was then added. After washing, the activity of the microplate well-bound enzyme was measured by adding the substrate. Color development and absorbance at 405 nm were read.

[2] = system: Trop-2 positive breast cancer cell line MDA-MB-468; experiment: Internalization assay by flow cytometry (Example 2 protocol); assay type: cell-based, human; settings: Table 4; chimeric IgGs; 2 hours at 37° C.; 100 × (MFI4°C - MFI37°C) / MFI4°C
Procedure: The chimeric IgG1 #118-2-5 and #125-1-5 were further evaluated by internalization assay using Trop-2 positive breast cancer cell line MDA-MB-468. MDA-MB-468 cells were seeded at 1×10^5 cell/well. Next, the chimeric or benchmark IgGs were added to cells in FACS buffer and incubated for 2 hours at 4° C. After incubation, the cells were washed to remove unbound antibody. The cells were then incubated at 37° C. After 2 hours, the cells were dissociated and stained with fluorescent-conjugated […] secondary antibodies for 30 minutes on ice in dark before being analyzed using Beckman flow cytometry system. The fluorescent intensity and cell binding percentage at each time point were analyzed by Beckman flow cytometric software. The amount of chimeric IgGs internalized into cells was determined using the following formula: % internalization rate = 100 × (MFI4°C - MFI37°C) / MFI4°C.

human Trop-2ECD-6His = target: T2, human Trop-2ECD-6His; experiment: Cross-reactivity ELISA, human Trop-2; assay type: binding; settings: plate coated with 1 µg/mL antigen
Procedure: (§1) Cross-reactivity of chimeric IgG #118-2-5 and #125-1-5 to the Trop-2 antigens from different species was assessed by ELISA. In this experiment, a microtiter plate was coated overnight at 4° C. with 50 µL/well of 1 µg/mL human Trop-2ECD-6His, mouse Trop-2-His, cynomolgus Trop-2-His, human EPCAM-His, and a non-related protein. The plate was washed and blocked for 1 hr at 37° C., and then washed with wash buffer. Purified chimeric IgGs appropriately diluted in PBS were added to wells and incubated for 1 hr at 37° C. After washing, bound antibodies were detected using HRP-conjugated goat-anti-human IgG Ab. Color development and absorbance at OD450 nm were read. A non-specific mock mouse IgG and a non-specific mock human IgG were included as the negative controls, while anti-His antibody was used as a positive control.
(§2) The cross-reactivity of purified IgGs to the Trop-2 antigens from different species was tested by ELISA. In this experiment, a microtiter plate was coated overnight at 4° C. with 50 µL/well of 1 µg/mL human Trop-2ECD-6His, mouse Trop-2-His, cynomolgus Trop-2-His, human EPCAM-His, and a non-related protein. The plate was washed and blocked for 1 hr at 37° C., and then washed with wash buffer. […] After washing, bound antibodies were detected using HRP-conjugated goat-anti-human IgG antibody. Color development and absorbance at OD450 nm were read. […]

cynomolgus Trop-2-His = experiment: Cross-reactivity ELISA, cynomolgus Trop-2; assay type: binding; settings: plate coated with 1 µg/mL antigen
Procedure: as §1, §2

mouse Trop-2-His = target: T3, mouse Trop-2-His; experiment: Cross-reactivity ELISA, mouse Trop-2; assay type: binding; settings: plate coated with 1 µg/mL antigen
Procedure: as §1
(§3) The cross-reactivity of purified IgGs to the Trop-2 antigens from different species was tested by ELISA. In this experiment, a microtiter plate was coated overnight at 4° C. with 50 µL/well of 1 µg/mL human Trop-2ECD-6His, mouse Trop-2-His, cynomolgus Trop-2-His, human EPCAM-His, and a non-related protein. The plate was washed and blocked for 1 hr at 37° C., and then washed with wash buffer. Purified anti-Trop-2 antibodies appropriately diluted in PBS were added to wells and incubated for 1 hour at 37° C. After washing, bound antibodies were detected using HRP-conjugated goat-anti-human IgG antibody. Color development and absorbance at OD450 nm were read. A non-specific human IgG1 was included as a negative control, while hRS7 was used as a positive control.

human EPCAM-His = target: T4, human EPCAM-His; experiment: Cross-reactivity ELISA, human EPCAM; assay type: binding; settings: plate coated with 1 µg/mL antigen
Procedure: as §1, §3

non-related protein = experiment: Cross-reactivity ELISA, non-related protein; assay type: binding; settings: plate coated with 1 µg/mL protein
Procedure: as §1, §3

[3] = target: T5, human Trop-2-ECD-6His fusion protein; experiment: ELISA on immobilized Trop-2-ECD-6His; control, 1 to 1 ratio
[4] = target: T5, human Trop-2-ECD-6His fusion protein; experiment: ELISA on immobilized Trop-2-ECD-6His; control, 1 to 10 ratio
[5] = target: human Trop-2 on Trop-2 positive cancer cells (human) (UniProt P09758); experiment: cell-based or functional assay
[6] = target: T5, human Trop-2-ECD-6His fusion protein; experiment: antigen binding ELISA on immobilized human Trop-2-ECD-6His

Molecule | OD value, Conditioned Medium 1 to 1 ratio [1] | OD value, Conditioned Medium 1 to 10 ratio [1] | Internalization rate [2] | binding to human Trop-2 antigen (ELISA, OD450 nm) (human Trop-2ECD-6His) | binding to cynomolgus Trop-2 antigen (ELISA, OD450 nm) (cynomolgus Trop-2-His) | recognition of mouse Trop-2 (ELISA, OD450 nm) (mouse Trop-2-His) | recognition of mouse Trop-2 (ELISA, OD450 nm) (mouse Trop-2-His; listed as benchmark IgG) | recognition of hEPCAM (ELISA, OD450 nm) (human EPCAM-His) | recognition of hEPCAM (ELISA, OD450 nm) (human EPCAM-His; listed as benchmark IgG) | recognition of the non-related protein (ELISA, OD450 nm) (non-related protein) | recognition of the non-related protein (ELISA, OD450 nm) (non-related protein; listed as benchmark IgG) | OD (absorbance at 405 nm) [3] | OD (absorbance at 405 nm) [4] | Internalization rate (flow cytometry, MDA-MB-468 cells) [5] | EC50 [6] | binding affinity to Trop 2 compared with benchmark hRS7 ([1]; in words, chimeric IgGs, see OD value in Table 3)
hRS7: anti-Trop2 antibody used in sacituzumab govitecan (IMMU-132); used as a benchmark antibody [reference compound] | 1.339 | 1.457 | 17.62% | able to bind | able to bind | some non-specific binding | did not recognize | some non-specific binding | did not recognize | some non-specific binding | did not recognize |  |  |  |  | 
BSA (from UniProt P02769 25-607) |  |  |  |  |  |  |  |  |  |  |  | 0.059 OD | 0.058 OD |  |  | 
humanized IgG #118-2-5 Hu(A1)/LuX (antibody, V domains shown, Second round of humanization) VH: QVQLQESGPGLVKPSETLSLTCTVSGFSLTSYGVNWIRQPPGKGLEWIGVMWAGGSTNYNSALMSRVTISVDTSKNQFSLKLSSVTAADTAVYYCARDENWDGAWFAYWGQGTLVTVSS VL: DIVMTQSPDSLAVSLGERATINCKSSQSLLNSGTRKNYLAWYQQKPGQPPKLLIYWASSRESGVPDRFSGSGSGTDFTLTISSLQAEDVAVYYCKQSYNLFTFGGGTKVEIK |  |  |  |  |  |  |  |  |  |  |  |  |  | 56% | 280 pM | 
#125-1-5 (antibody, listed as Mus musculus, V domains shown) VH: QIQLVQSGPELVKPGASVKMSCKASGYTFTTYVIHWVKQKPGQGLEWIGYINPNNDGTKYNEKFKGKATLISDKSSTTAYMEVRGLTSEDSAVYYCARPHFETHAMDYWGQGTSVTVSS VL: DIQMTQSPSSFSVSLGDSVTITCKASEDIFNRLAWYQQKPGNAPRLLISGATSLETGVPSRFSGGGSGKEYTLSITSLQNEDVATYYCQQYWNTWTFGGGTKLEIK | 1.572 | 1.539 | 4.70% | able to bind | able to bind | did not recognize |  | did not recognize |  | did not recognize |  |  |  |  |  | higher binding affinity than the benchmark reference antibody hRS7
